Patent US20200255483A1

Legend:
[1] = biological target: RAS proteins (endogenous, in cells); experiment: cell-based or functional assay
[2] = biological target: diphtheria toxin receptor (heparin-binding epidermal growth factor-like growth factor, HB-EGF) on Vero cells (UniProt Q09118); experiment: cell-based or functional assay

Row | Substance | EC50 of loss of total RAS proteins in HeLa cells after 24 h (immunoblot with anti-RAS antibody) [1] [pM] | EC50 of inhibition of protein synthesis (3H-leucine incorporation) in Vero cells, in the presence of 1 nM nontoxic DT [2] [pM] | EC50 of inhibition of protein synthesis (3H-leucine incorporation) in Vero cells, without competitor [2] [pM] | EC50 of loss of RAS proteins in HeLa cells (immunoblot) [1] [pM] | potency of RAS loss in HeLa cells against RRSP-dta-dtB [1] [fold]
1 | RRSP-dta-dtB (enzyme) | 250 | – | – | – | –
2 | dtA-eGFP-dta-dtB | – | 215 | 3.8 | – | –
3 | RRSP-Δdta-dtB (enzyme) | – | – | – | 1 | 300
4 | RRSP-APD-Δdta-dtB (enzyme) | – | – | – | 1 | 300
